From article PMC3429473, “The Weak Complex between RhoGAP Protein ARHGAP22 and Signal Regulatory Protein 14-3-3 Has 1∶2 Stoichiometry and a Single Peptide Binding Mode” (PLoS ONE, 2012) come the findings set out here.

A word on the Kd: it is the equilibrium constant for the complex coming apart. One may read the stoichiometry N as the number of molecules, sites or subunits per partner or assembly.

For data set [1], the target named is AG22 (1-422) S16D/S411D (human). The data set is described as follows: small-angle X-ray scattering (SAXS) titration; AG22 (1-422) S16D/S411D at 26.5 µM (1.25 mg/mL) pre-mixed with 14-3-3 at molar 14-3-3_(2):AG22 ratios of 0.5:1.0, 1.0:1.0, 1.5:1.0 and 2.0:1.0, about 1 hour on ice, measured at room temperature (295 K); scattering fitted as a linear combination of the profiles of 14-3-3_(2), AG22 and the cross-linked complex; Kd = (W_AG22 x W_14-3-3)/W_Complex for each titration point.

Data set [2] has the same target. Described as above. This is another data set of the same source.
Data set [3] has as its target AG22 (1–422) S16D/S411D phosphomimic double mutant (human). The experiment in a line: SAXS titration; AG22 (1–422) S16D/S411D at 26.5 µM (1.25 mg/mL) mixed with 14-3-3 dimer at molar ratios 0.5, 1.0, 1.5 and 2.0; about 1 h on ice; data fitted as linear combinations of the profiles of the two proteins and of the cross-linked complex; Kd counted on the 14-3-3 dimer.
For data set [4] the target is unchanged. The experiment in a line: cross-linking + SEC; 1:2 mixture cross-linked with BS3 for 30 min in 50 mM Hepes pH 8.6, purified by gel filtration, then analytical Superdex S200 10/300GL in 25 mM HEPES pH 7.5, 150 mM NaCl, 2 mM β-ME. Background: Size exclusion chromatography separates by hydrodynamic size, large species first.
Data set [5] deals with T1, AG22 (1–145) S16D (human).
T1 chain: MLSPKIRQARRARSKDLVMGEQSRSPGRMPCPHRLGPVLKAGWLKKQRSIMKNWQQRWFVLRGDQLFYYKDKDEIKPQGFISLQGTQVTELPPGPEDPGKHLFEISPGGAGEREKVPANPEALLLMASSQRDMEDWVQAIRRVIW
The data set is described as follows: cross-linking; AG22 proteins (10 µM) and 14-3-3 (30 µM), alone or mixed, in 50 mM HEPES pH 8.6 with 3 mM BS3 at room temperature for 5 to 30 min; SDS-PAGE, Coomassie Blue. The conditions noted are these: both partners purified.

Data set [6] concerns the molecule itself. Described as above.
Data set [7] concerns the target AG22 (1–422) S16D/S411D phosphomimic double mutant (human). The description is as above.
The target in data set [8] is wild type AG22 (1–422) (human). The description is as above.
Data set [9] addresses AG22 (1-422) S16D/S411D (human). The experiment in a line: small-angle X-ray scattering (SAXS) titration; AG22 (1-422) S16D/S411D at 26.5 µM (1.25 mg/mL) pre-mixed with 14-3-3 at molar 14-3-3_(2):AG22 ratios of 0.5:1.0, 1.0:1.0, 1.5:1.0 and 2.0:1.0, about 1 hour on ice, measured at room temperature (295 K); scattering fitted as a linear combination of the profiles of 14-3-3_(2), AG22 and the cross-linked complex; Kd = (W_AG22 x W_14-3-3)/W_Complex for each titration point. The source holds these as a separate data set.

Where two headings read alike, the source gives them in different places.

B1: human 14-3-3 β (natural protein)
chain: MTMDKSELVQKAKLAEQAERYDDMAAAMKAVTEQGHELSNEERNLLSVAYKNVVGARRSSWRVISSIEQKTERNEKKQQMGKEYREKIEAELQDICNDVLELLDKYLIPNATQPESKVFYLKMKGDYFRYLSEVASGDNKQTTVSNSQQAYQEAFEISKKEMQPTHPIRLGLALNFSVFYYEILNSPEKACSLAKTAFDEAIAELDTLNEESYKDSTLIMQLLRDNLTLWTSENQGDEG
notes: human 14-3-3 β isoform, codon-optimized synthetic gene (GeneArt) in pET20b; calculated monomer mass 29.3 kDa; the printed monomer mass of 29.3 kDa would fit the whole protein with the tag; Dimer by cross-linking and SAXS; also called 14-3-3_(2); 14-3-3 β isoform; not shown: His6, C-terminal, kept
In the case of B1, the Kd was found to be 34.2 µM in data set [1]; 20.9 µM in data set [2]; 28 µM in data set [3]; 27.4 µM in data set [9]; 30.6 µM in [9] (record 2). Besides, the stoichiometry N (14-3-3 chains per AG22 molecule) in data set [4], in [7] and in data set [8] was 2 each time. In addition, the “stoichiometry N” value is 2 14-3-3 chains per AG22 molecule in data set [5] and 2 in [6].
